Test results from patent publication US20120121576A1 (ACCELERON PHARMA, published 2012).

Assays:
[1] = molecular target: T1, monomeric ActRIIA tagged with histidine (ActRIIA-His) (human, UniProt P27037 20-135); test: SPR (BIACORE)
T1 construct: also called monomeric extracellular domain of ActRIIA tagged with histidine

[2] = molecular target: ActRIIA expressed by A204 human rhabdomyosarcoma cells (human, UniProt P27037 20-513); test: cell-based or functional assay
[3] = molecular target: T2, ActRIIA-Fc (ActRIIA-mFc, dimeric protein) (human, UniProt P27037 20-135); test: SPR (BIACORE): Ab-14E1 captured on a CM5 chip by immobilized anti-mFc IgG, ActRIIA-mFc injected at different concentrations, nonlinear regression
Text: (§1) FIG. 9 depicts the kinetics of ActRIIA-Fc binding to Ab-14E1 as determined by BIACORE™-based analysis. A. Ab-14E1 was captured on a chip with covalently immobilized anti-mFC IgG and then exposed to ActRIIA-Fc at different concentrations. […] RU, relative units.

[4] = molecular target: T2, ActRIIA-Fc (ActRIIA-mFc, dimeric …); test: SPR (BIACORE); Ab-14E1 captured by immobilized anti-mFc IgG, ActRIIA-Fc as analyte
Text: as §1

T2 sequence (P27037 20-135 limits assumed): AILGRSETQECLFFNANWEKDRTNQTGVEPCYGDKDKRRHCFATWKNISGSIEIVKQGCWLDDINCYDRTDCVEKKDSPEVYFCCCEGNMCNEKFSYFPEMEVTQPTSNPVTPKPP
ActRIIA expressed by A204 human rhabdomyosarcoma cells, sequence (P27037 20-513 limits assumed): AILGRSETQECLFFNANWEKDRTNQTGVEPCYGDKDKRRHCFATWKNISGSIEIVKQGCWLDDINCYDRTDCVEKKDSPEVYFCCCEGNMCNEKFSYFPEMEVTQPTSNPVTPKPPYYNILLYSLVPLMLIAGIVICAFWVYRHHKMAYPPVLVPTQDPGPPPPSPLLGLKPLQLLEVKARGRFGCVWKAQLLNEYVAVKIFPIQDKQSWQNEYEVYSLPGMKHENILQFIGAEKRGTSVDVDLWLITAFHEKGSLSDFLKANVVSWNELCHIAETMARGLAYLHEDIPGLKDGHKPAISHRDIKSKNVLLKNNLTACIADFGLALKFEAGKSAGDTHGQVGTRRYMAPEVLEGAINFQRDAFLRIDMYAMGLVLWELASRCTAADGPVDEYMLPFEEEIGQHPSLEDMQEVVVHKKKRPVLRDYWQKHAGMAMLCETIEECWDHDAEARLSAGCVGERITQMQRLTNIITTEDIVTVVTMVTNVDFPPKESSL
T1 sequence (P27037 other isoform, or with tags, fused parts or gaps limits assumed): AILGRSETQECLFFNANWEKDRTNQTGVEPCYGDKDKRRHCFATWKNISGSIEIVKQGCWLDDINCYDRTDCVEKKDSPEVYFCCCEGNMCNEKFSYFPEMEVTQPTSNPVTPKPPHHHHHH

fold lower affinity than for ActRIIA-mFc [1]: 10 fold
IC50 of inhibition of activin A-stimulated reporter gene expression (pGL3(CAGA)12 luciferase) in A204 cells [2]: 57.1 ng/ml
kon [3]: 86000 M⁻¹ s⁻¹
Kd [4]: ~0.012 nM
koff [4]: ~1e-06 s⁻¹
B1: Ab-14E1 (antibody 14E1; hybridoma subclone 14E1.H8.H1) (antibody, V domains shown)
VH: DVQLQESGPGLVKPSQSLSLTCSVTGYSITSGYYWNWIRQFPGNKLEWMGYISYDGSNNYNPSLINRISITRDTSKNQFFLKLNSVTTEDTATYFCASYAYRNDVRFAYWGQGTLVTVSA
VL: DIQMTQTTSSLSASLGDRVTISCRASQDISNFLNWYQQKPDGTVKLLIYFTSRLHSGVPSRFSGSGSGTDYSLTITNLEQEDIATYFCQQGNTLPWTFGGGTKLEIK
